Data on eight molecules can be found in patent publication US20170166631A1 (published 2017).

What all share (test): ELISA
For orientation: In an ELISA, binding on a coated surface is turned into a signal by an enzyme label.

The target of assay [1] is T1, HD49 (huntingtin exon 1 protein with 49 polyQ repeats after cleavage of the GST tag; aggregation reaction) (human, UniProt P42858 1-88).
T1 chain: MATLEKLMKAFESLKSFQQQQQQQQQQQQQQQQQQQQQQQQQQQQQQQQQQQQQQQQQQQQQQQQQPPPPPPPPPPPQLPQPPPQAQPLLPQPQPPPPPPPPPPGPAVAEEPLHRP

The target in assay [2] is T2, HD21 (huntingtin exon 1 protein with 21 polyQ repeats after cleavage of the GST tag; aggregation reaction) (human, UniProt P42858 1-88).
T2 chain: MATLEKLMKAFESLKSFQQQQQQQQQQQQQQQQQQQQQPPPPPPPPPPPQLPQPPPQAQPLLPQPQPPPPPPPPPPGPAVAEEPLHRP

For assay [3], the target named is T3, BSA-coupled synthetic peptide of the P-rich domain sequence of huntingtin exon 1 (coupled to BSA).
T3 peptide: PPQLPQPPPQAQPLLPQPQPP

The target of assay [4] is T4, GST-HttExon1Q21 (recombinant huntingtin exon 1 protein with 21 polyQ repeats fused to an N-terminal GST tag) (;human, UniProt P08515 1-218 = GST; P42858 1-88).
Target sequence in this assay (P08515 1-218, tags or fused parts left off): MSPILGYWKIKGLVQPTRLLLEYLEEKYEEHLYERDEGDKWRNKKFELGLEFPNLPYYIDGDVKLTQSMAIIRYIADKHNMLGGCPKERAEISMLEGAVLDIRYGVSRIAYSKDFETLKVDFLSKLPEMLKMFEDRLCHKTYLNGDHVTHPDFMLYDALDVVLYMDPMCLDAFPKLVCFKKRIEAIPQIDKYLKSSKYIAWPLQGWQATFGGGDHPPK
Assay [5] deals with T1, HD49 (huntingtin exon 1 protein with 49 …).
In assay [6] the target is T2, HD21 (huntingtin exon 1 protein with 21 …).
The target in assay [7] is T4, GST-HttExon1Q21 (recombinant huntingtin …). The source holds these as a separate data set.
In assay [8] the target is T1, HD49 (huntingtin exon 1 protein with 49 …).
The target of assay [9] is T2, HD21 (huntingtin exon 1 protein with 21 …).
The target of assay [10] is T4, GST-HttExon1Q21 (recombinant huntingtin …). This is another data set of the same source.
Assay [11] addresses T1, HD49 (huntingtin exon 1 protein with 49 …).
In assay [12] the target is T2, HD21 (huntingtin exon 1 protein with 21 …).
The target in assay [13] is T4, GST-HttExon1Q21 (recombinant huntingtin …). The source holds these as a separate data set.
Assay [14] concerns the target T1, HD49 (huntingtin exon 1 protein with 49 …).
Assay [15] concerns the target T2, HD21 (huntingtin exon 1 protein with 21 …).
Assay [16] has as its target T4, GST-HttExon1Q21 (recombinant huntingtin …). This is another data set of the same source.
Target sequence in this assay (P08515 1-218, tags or fused parts left off): as above
The target of assay [17] is T1, HD49 (huntingtin exon 1 protein with 49 …).
For assay [18], the target named is T2, HD21 (huntingtin exon 1 protein with 21 …).
The target of assay [19] is T4, GST-HttExon1Q21 (recombinant huntingtin …). The source holds these as a separate data set.
For assay [20], the target named is T1, HD49 (huntingtin exon 1 protein with 49 …).
Assay [21] deals with T2, HD21 (huntingtin exon 1 protein with 21 …).
Assay [22] has as its target T4, GST-HttExon1Q21 (recombinant huntingtin …). The source holds these as a separate data set.
In assay [23] the target is T5, BSA-coupled synthetic peptide of the 14 C-terminal amino acids of huntingtin exon 1 (coupled to BSA).
T5 peptide: PPGPAVAEEPLHRP

Like-named read-outs stand apart in the source and are kept apart here.

B1: NI-302.63F3 (antibody, V domains shown)
VH: QVQLVQSGSAFKKPGTSVKVSCKASGYTFETRSMNWVRQAPGQGLEYMGWINTNTGNRTYVQAFRGRFVFSLDTSVSTAYLQISNLKTEDTAVYYCARGAGGGYWFDSWGQGTLVTVSS
VL: DIQMTQSPDSLAVSLGERATINCKSNQSLFYSSNNNNYLAWYQHKSGQPPKLLVYWGSTRESGVPDRFSGSGSGTDFTLTISSLQAEDVAIYYCHQYYHNPYTFGQGTKLEIK
What is called EC50 is the midpoint of the concentration-response curve. Regarding B1, the EC50 was 0.4 nM in assay [1]; 0.3 nM in [2]; 0.3 nM in [3]; 0.2 nM in assay [4]; 0.4 nM in assay [5]; 0.3 nM in [6]. In addition, in assay [7], the EC50 is 0.2 nM.

B2: NI-302.15E8 (antibody, V domains shown)
VH: EVQLVESGGGLIQPGGSLRLSCAVSGFTVSSYSMNWVRQAPGKGLEWVSYTSSSRSNTKKYADSVKGRFTISRDNARNSLYLQMNSLRDEDTAVYYCARAGDFGELLTGEGYYGMDVWGQGTTVTVSS
VL: SYELTQPPSVSVSPGQTATITCSGDELGDKYVGWYQQKPGQSPLLVIYQDAKRPSGIPERFSGSNSGNTATLTISGTQAMDEADYYCQAWDSGTMVFGGGTRLTVL
With B2, the EC50 in [1] is more than 100 nM; in assay [2] it was more than 100 nM; in [4], 9.3 nM; in assay [8], more than 100 nM; in assay [9] it was more than 100 nM; in assay [10], 9.3 nM.

B3: NI-302.39G12 (antibody, V domains shown)
VH: EVQLVQSGGGLVHPWGSLRLSCAASGFSVSNYAITWVRRAPGKGLQYISVIYRDGRTYYGDSVRGRFTISRDDSKNTLYLQMNSLRFEDTAVYYCARAHGQYYYGVDVWGQGTTVTVSS
VL: DVVMTQSPLSLSVSPGEPASISCRSSQSLLHSNGYNYLDWYRQKPGQSPQLLIYLSSNRPSGVPDRFSASGSGTEFTLQISRVEAEDVGVYYCMQSLQTFTFGGGTKVDIK
For the molecule B3, the EC50 in assay [11] amounted to 28 nM; in assay [12] it was 15 nM; in assay [13], 3.4 nM; in [14], 28 nM; in assay [15] it was 15 nM; in assay [16] it was 3.4 nM.

B4: NI-302.15D3 (antibody, V domains shown)
VH: EVQLVESGGDLVQPGGSLRLSCAASGFTFSSYWMHWVRQAPGKGLVWVSRISNDGSSKTYADSVKGRFTISRDNAKNTLYLQMNSLRAEDTAVYYCAILGGYCSSTSCRPFDNWGQGTLVTVSS
VL: QSALTQPASVSGSPGQSITISCTGTSSDVGVYNYVSWYQQHPGKAPKLMIFDVSNRPSGISNRFSGSKSGNTASLTISGLQAEDEADYYCSSYTSSDTWVFGGGTKLTIL
With B4, the EC50 was 15 nM in assay [1]; 6.4 nM in [2]; 1.2 nM in assay [3]; 4.2 nM in assay [4]; 15 nM in assay [17]; 6.4 nM in assay [18]. In addition, the EC50 in assay [19] came to 4.2 nM.

B5: NI-302.64E5 (antibody, V domains shown)
VH: EVQLVETGGGLVKPGGSLRLSCAASGFTFDQAWMSWVRQVPGKGLEWVGRIKTKTEGEATDYAAPVRGRFTISRDDSEDTVFLQMNSLKTEDTALYYCTSTGVLAAAVDVYWGQGTLVTVSS
VL: DIQLTQSPDSLAVSLGERATMTCKSSQSLFYSYNNENYLAWYQQRPGQPPKLLIYWASTRESGVPDRFSGSGSGTDFTLTISSLQAEDVAVYYCQQYYSTPQTFGQGTKVDIK
As to B5, the EC50 stood at 1.6 nM in assay [1]; 0.7 nM in [2]; 0.1 nM in [3]; 1.4 nM in assay [4]; 1.6 nM in assay [20]; 0.7 nM in assay [21]. Further, in assay [22], the EC50 turned out to be 1.4 nM.

B6: NI-302.11A4 (antibody, V domains shown)
VH: EVQLVESGGGLIQPGGSLRLSCAASGFPVSSSYMSWVRQAPGEGLEWVSVLYRDGDTYYADSVQGRFTISRDNSQNTFYLQMNSLKAEDTAVYYCAGDRRSSHYYYGMDVWGQGTTVTVSS
VL: EIVMTQSPGTLSLSPGERATLSCRASQSVSSSYFAWYQQKPGQAPRLLIYGTSRRATAIPDRFSGSGSGTDFTLTISRLEPEDFAVYYCQQYGSSWTFGPGTKVEIK
For the molecule B6, the EC50 in assay [11] turned out to be 19 nM; in [12], 18.2 nM; in assay [13] it was 1.4 nM; in [14], 19 nM; in assay [15], 18 nM; in assay [16], 1.4 nM.

B7: NI-302.72F10 (antibody, V domains shown)
VH: EVQLVETGGGFVQPGGSLRLSCAASGFNFGSYAMSWVRQAPGKGLEWVSDISGIGSNTYYADSVKGRFTISRDNSDNTLYLDMSSLRAEDTARYYCAKDRKRSGWYEQWGQGTLVTVSS
VL: EIVMTQSPATLTLSPGERATLSCRASQSISAYLGWYQQKPGQAPRLLIYDASIRATGIPDRFSGSGSGTDFTLTISSLEPEDSAVYYCHQRSKWPLTFGGGTKVEIK
B7: the EC50 in [1] is 26 nM; in assay [23] it was 0.1 nM; in [2], 4 nM; in assay [4] it was 10 nM; in assay [20], 26 nM; in assay [21] it was 4 nM. Besides, the EC50 in assay [22] worked out at 10 nM.

B8: NI-302.2A2 (antibody, V domains shown)
VH: EVQLVESGGGLVQPGGSLRLSCAASGFTFSTYWMNWVRQAPGKGLEWVANIKPDGSDKYYVDSVKGRFTISRDNAKNSLYLQMNSLRDEDTAVYYCARGDGSGWNVYWGQGTLVTVSS
VL: DIQMTQSPDSLAVSLGERATINCKSSQSLLYTSKNKDSKNYLGWYQQKPGQPPKLLIYWASTRESGVPDRFSGSGSGTDFTLTISSLQAEDVAVYYCQQYYTTPQFGGGTKVEIK
As to B8, the EC50 in [1] was more than 100 nM; in assay [2], 12.3 nM; in assay [3], 1.4 nM; in assay [4], 10.1 nM; in assay [17], approximately 100 nM; in [18], 12.3 nM. Moreover, in assay [19], the EC50 was determined as 10.1 nM.
